From the supplement of paper PMC9170038

Tested on: MS2 coat protein
Assay: apparent KD of MS2 coat protein; designed switch direction (-1 OFF switch, 1 ON switch): -1; higher = weaker reporter binding
Outline: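 The apparent KD reported per design is the median over clusters of curve fits to normalised cluster fluorescence. The RNA switches were transcribed on Illumina chips by stalled E. coli RNA polymerase. SNAP-549-labelled MS2 coat protein was titrated from 0.7 or 1.5 nM, doubling up to 3 µM, in Tris-HCl pH 7.5 buffer containing KCl, MgCl2, BSA, DTT, tRNA and Tween-20, with no input, 200 uM small-molecule ligand, or an oligonucleotide input.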

[1] = input ligand: microRNA oligo, concentration not stated
[2] = Eterna round: R95, input ligand: FMN 200 uM
[3] = Eterna round: R95, input ligand: microRNA oligo, concentration not stated
[4] = Eterna round: R95, input ligand: none

Sequence	apparent KD of MS2 coat protein (input ligand: FMN 200 uM) [nM]	apparent KD of MS2 coat protein [1] [nM]	apparent KD of MS2 coat protein (input ligand: none) [nM]	apparent KD of MS2 coat protein [2] [nM]	apparent KD of MS2 coat protein [3] [nM]	apparent KD of MS2 coat protein [4] [nM]
GGUCAGAUGGUAGGAUAUCCAUAUCGAGUGACCCUUUUAUAACAUGAGGAUCACCCAUGUCGGUGGGAGAAGGGCCGUACGGCG [salish99_ExNG02_R04_018] (Eterna round: R96, puzzle: Exclusion NG 2)	244	129	224			
CUUGUGUGAGGAUAUGAAUUGCCUGGUCAUCCAGGCUCCUGUCAGAAGGCACAUGAGGAUCACCCAUGUGGGCA [Biatire] (Eterna round: R97, puzzle: Exclusion 4)	120		882			
GUCGUGUUAGGAUAUGCAUGUGGACGAUGUUCUCCGCCGGUGUAGAAGGAACAUGAGGAUCACCCAUGUGCCUA [Eternabot (L1) Solution 79] (Eterna round: R97, puzzle: Exclusion 4)	45.6		52.5			
UAAUAUCUGAUUCUUGAGAUACAUGAGGAUCACCCAUGUUCACAGGAUAUUGAUUUUAAGAAAAGCAAGAAGGGUGAAUCAUUU [JR_ExcNG3_Sub041] (Eterna round: R96, puzzle: Exclusion NG 3)	26.9	16.5	22.9			
AGAGAAUACUCAGGAUAUCUUAAUAGAAAGAAUAGAGAAGGGAGACAUGAGGAUCACCCAUGUGAAGUCUUGAGACUACAUGGU [Prohibition 29 - Jieux - Exclusion NG 1] (Eterna round: R96, puzzle: Exclusion NG 1)		218				
CAGCCAAGUGUGAGGAUAUGGCGAUUGCAUUGACGUCAGAAGGCACAUGAGGAUCACCCAUGUGAGGUGGAUGA [Eternabot (L2) Solution 25] (Eterna round: R97, puzzle: Brourd's mod of Exclusion 4)	45.8		755			
GAAAAGGUAGGAUAUACGAAAAAAAAGGGUAGAAAAAAAACACAUGAGGAUCACCCAUGUAGAAGGACCGAAAG [salish99_ex2_r3_037] (puzzle: Exclusion 2)				58.5	36.8	32.7
CCUUUGUCAGGAUAUCAGAACGCGCUCGUAGGGAGCGCAAAUGAGAAGGGACAUGAGGAUCACCCAUGUAAAGA [Gequleon] (puzzle: Exclusion 4)				204	43.6	48.2
CUGUAACAUGAGGAUCACCCAUGUCAGGAUAUCUAUCAUAGCAUCGAAAGAUGCGGGUAGAGAAGGGACUAUCC [ChP Ext 10-04-2015 #8] (puzzle: Exclusion 1)					14.5	
AGUAGUUGUUUCCGUUCUUACAUGAGGAUCACCCAUGUUUCUUGUCGUGCUCGCGAUGCUCGUCAGACUACCAGAUG [salish99_TOv1_r3_059] (Eterna round: R96, puzzle: Sensor v3, turn-off variant 1)	63	40.6	59.1			
AGAAGUAGUAACCGAUCCUACAUGAGGAUCACCCAUGUAGCUAGACGUGCACGCGAGGCUCGUCAGACUACCAGAUG [salish99_TOv1_r3_028] (puzzle: Sensor v3, turn-off variant 1)				210	133	289
GGUUGACAUGAGGAUCACCCAUGUGAGGAUAUGCGAGAGAAAAAAGUGAGGAAGAAAAGCAGAAGGCGCUGACG [salish99-ex1_r3_002] (puzzle: Exclusion 1)				15.5	28.6	13.5
ACCUAACAUGAGGAUCACCCAUGUGAGGAUAUGUACAUCGGCUCGCGAAAGUGACCGAACAGAAGGUACAUGGU [EX1 A.26] (Eterna round: R97, puzzle: Exclusion 1)	17.8		19.1			
CUUUUGUGAGGAUAUCAGUAGUAAAAAAAUAUAAUUACUACUGAGAAGGCACAUGAGGAUCACCCAUGUUCCUC [salish99_ex4_r3_023] (puzzle: Exclusion 4)					40.1	
GUGGUACAUGAGGAUCACCCAUGUCAGGAUAUCGUGUGUUUUUUUUCGGCCGCGCGUGCGAGAAGGGACGUCUU (puzzle: Exclusion 1)					17.3	
CUAGAUCUUCGGAUCUAGUACAUGAGGAUCACCCAUGUGACGAGUAUAUCUUCAAACAAGCUUUUUGCUCGUCUUAU [Sensor v3 - Turn-off variant 1 - 24] (puzzle: Sensor v3, turn-off variant 1)				37.3	49.5	40.6
AUAAACCUAGGAUAUACAUGAGGAUCACCCAUGUAAGGGCAAUGCCCAUGCUCCUCAUGUAGAAGGAGGAGCAG [Xezausa] (puzzle: Exclusion 3)					20.2	
AAGUACCGUCACGAUAGUGAUGGUACAACAAGCAAAUAUACAUGAGGAUCACCCAUGUCCUCUUUUGCUCGUCUUGU [Sensor 3] (puzzle: Sensor v3, turn-off variant 2)				798	237	900
GUACUCGGAUGACAGUCCGACAUGAGGAUCACCCAUGUUUCAUUAAGGUCGUUGCUCGUCAAACAUCACUCAACCAG [Eternabot (L1) Solution 35] (Eterna round: R97, puzzle: Sensor, turn-off variant 1)	43.2		51.5			
AAGAAACAUGAGGAUCACCCAUGUGAGGAUAUGAAAAAGAAAAGAAAAGAAAGAAGCAUCAGAAGGCACAAAGG [salish99-ex1_r3_026] (puzzle: Exclusion 1)				36.1	32.1	31.1
CUCCUCAUGGCGCCUAAACACAUGAGGAUCACCCAUGUACAGGCUUUCUGCCGUCUUAUAAUAAAACCGAGGAUGCG [Soedlexe] (puzzle: Sensor v3, turn-off variant 1)				33.6	212	42.1
UUGUUUUUUGAGGAUAUGCGACGUUUUUUCGUCGUAGAAGGCGAUACAUGAGGAUCACCCAUGUUUAUGGGCAU [LRO-Ex6-14] (puzzle: Exclusion 6)					122	
GGCCUUCCGCGAGCUUUUUACAUGAGGAUCACCCAUGUGGUUUUUAGUCUUAUCCCGGGCCCGGUGUCGGGCCCGGG [-32.9, -53.8, A 12%] (Eterna round: R97, puzzle: Sensor, turn-off variant 1)	29.8		30.2			
AAACAGCAAGGAUAUACGGGCUGUGCUUUUCAUUUCUUACAACAUGAGGAUCACCCAUGUAGAAGGUGCAACAA [Ex2 #5] (Eterna round: R97, puzzle: Exclusion 2)	80.4		24.5			
CUGUUCCGUGUAGGAUAUGCAUAUUCUCAUUAUGCAGAAGGACAUGAGGAUCACCCAUGUAUGUUAUUAUCAUAUGUUACAUGU [Design 5] (Eterna round: R96, puzzle: Exclusion NG 1)		29.7				
GUAGAGUCAGGAUAUACAAGAUCGAAAGAUCAAAGGUCCAUACAUGAGGAUCACCCAUGUAGAAGGGACUCUAC [Eli x2 4.09] (Eterna round: R97, puzzle: Exclusion 2)	36.4		24.5			
UUUGUUGUUGUGAGGAUAUCGUAGUUAUUUUGUAACGAGAAGGCACAUGAGGAUCACCCAUGUUUUUUGAUGGU [JR_BMOE4_Sub063] (puzzle: Brourd's mod of Exclusion 4)					24.9	
